Where no end group is shown, it is not given here. The star is where a group is joined. FITC = O=C1OC2(c3ccc(O)cc3Oc3cc(O)ccc32)c2ccc(NC(=S)*)cc21
Experiments:
[1] = molecular target: T1, regulatory-associated protein of mTOR (RAPTOR) (UniProt Q8N122 1-1335); assay: fluorescence polarisation; fluorescence anisotropy; purified RAPTOR with N-terminally FITC-labeled synthetic LST2 TOS peptides; N = 3; settings: both partners purified
T1 construct: RAPTOR, regulatory-associated protein of mTOR; purified protein; Construct, host and tags are in SI Appendix, Material and Methods; In the cryo-EM rows RAPTOR stood as a subunit of mTORC1; source: purified

[2] = molecular target: T1, regulatory-associated protein of mTOR …; assay: co-IP; coimmunoprecipitation with purified RAPTOR and purified full-length LST2 (WT or F401A); blot quantified, N = 3; settings: both partners purified

T1 sequence (Q8N122 whole entry): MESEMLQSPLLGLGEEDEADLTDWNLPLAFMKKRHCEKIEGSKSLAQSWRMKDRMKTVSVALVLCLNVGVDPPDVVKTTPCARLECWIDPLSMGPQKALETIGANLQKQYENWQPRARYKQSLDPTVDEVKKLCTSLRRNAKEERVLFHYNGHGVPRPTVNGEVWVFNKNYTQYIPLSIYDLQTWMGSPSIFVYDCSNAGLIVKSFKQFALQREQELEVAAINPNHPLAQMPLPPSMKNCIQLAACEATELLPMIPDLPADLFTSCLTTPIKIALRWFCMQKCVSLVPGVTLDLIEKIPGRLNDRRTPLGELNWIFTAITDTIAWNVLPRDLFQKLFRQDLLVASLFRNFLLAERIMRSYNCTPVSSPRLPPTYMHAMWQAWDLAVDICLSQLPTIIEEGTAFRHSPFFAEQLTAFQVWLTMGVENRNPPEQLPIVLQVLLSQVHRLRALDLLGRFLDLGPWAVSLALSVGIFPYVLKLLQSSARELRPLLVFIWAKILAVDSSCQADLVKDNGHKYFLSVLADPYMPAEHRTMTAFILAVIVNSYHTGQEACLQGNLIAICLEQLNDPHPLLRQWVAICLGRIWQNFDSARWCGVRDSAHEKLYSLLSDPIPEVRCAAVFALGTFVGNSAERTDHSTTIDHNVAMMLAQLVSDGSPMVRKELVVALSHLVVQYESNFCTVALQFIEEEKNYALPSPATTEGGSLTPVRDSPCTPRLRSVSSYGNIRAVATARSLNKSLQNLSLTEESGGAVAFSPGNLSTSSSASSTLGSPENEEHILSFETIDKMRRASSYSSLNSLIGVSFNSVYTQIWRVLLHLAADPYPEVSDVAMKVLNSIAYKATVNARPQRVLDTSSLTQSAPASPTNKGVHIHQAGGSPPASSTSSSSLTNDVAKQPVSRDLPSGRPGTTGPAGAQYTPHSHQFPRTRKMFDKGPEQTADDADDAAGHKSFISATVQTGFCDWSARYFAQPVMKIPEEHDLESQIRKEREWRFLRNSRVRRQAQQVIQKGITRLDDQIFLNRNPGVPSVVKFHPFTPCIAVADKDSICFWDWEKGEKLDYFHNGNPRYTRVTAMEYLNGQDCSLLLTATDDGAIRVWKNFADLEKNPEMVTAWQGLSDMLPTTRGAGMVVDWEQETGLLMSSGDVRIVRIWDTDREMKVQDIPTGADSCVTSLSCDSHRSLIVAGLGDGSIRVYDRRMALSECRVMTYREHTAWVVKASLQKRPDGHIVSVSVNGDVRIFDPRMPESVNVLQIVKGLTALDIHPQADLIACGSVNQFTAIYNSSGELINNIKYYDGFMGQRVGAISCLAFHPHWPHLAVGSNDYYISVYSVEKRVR

Binder | Kd [1] [µM] | fold reduction of binding against LST2-WT [2] [fold]
{FITC}-DEEERVFFMDDVE (peptide, UniProt Q9HCC9 395-407, looked up, also called LST2 TOS peptide WT; FITC-labeled peptide; source: synthetic peptide) [FITC-labeled LST2 TOS peptide including flanking residues (amino acids 395 to 407)] | 0.33 | 
full-length LST2 F401A (natural protein, UniProt Q9HCC9 1-887, looked up, LST2 (ZFYVE28), full length, with F401A in the TOS motif; Tags and host in SI Appendix; also called TOS-deficient LST2-F401A; source: purified) MMNRFRKWLYKPKRSDPQLLARFYYADEELNQVAAELDSLDGRKDPQRCTLLVSQFRSCQDNVLNIINQIMDECIPQDRAPRDFCVKFPEEIRHDNLAGQLWFGAECLAAGSIIMNRELESMAMRPLAKELTRSLEDVRGALRDQALRDLNTYTEKMREALRHFDVLFAEFELSYVSAMVPVKSPREYYVQQEVIVLFCETVERALDFGYLTQDMIDDYEPALMFSIPRLAIVCGLVVYADGPLNLDRKVEDMSELFRPFHTLLRKIRDLLQTLTEEELHTLERNLCISQDVEFPIRADVQGPAALAPALSAPLPPEGPLSAKAKDPDAELACSMQYDDQELEQLSRMVHRAGDEMSSLLSPPIACQSPAHRPGAEGSPGGEASPGRPRLRSGSDEEERVAFMDDVEGTAEALARPESPAGPFGWAGSTWADPQEKGQGGPGGAAGISLPASEKEEDLSNNNLEAEGTDGASLAGTSSCSCLDSRLHLDGWEVGADDAETAEMIAHRTGGMKLSATVIFNPKSPTSLDSAVATQEAASEPVAEGMDGGPHKLSTGATNCLLHSCVCCGSCGDSREDVVERLREKCSPGGVIGASYAAGLAKASDRAPERQEEAPPPSEDASNGREPKAPTSDKCLPHTSGSQVDTASGLQGEAGVAGQQEPEARELHAGSPSAHEAPQALSGSSSSTAGSCSSDKMGPEAAPAATHAAPQATREKIRSRFHGSHDLIHRLFVCISGVADQLQTNYASDLRSILKTLFEVMATKPETDDKEKLRKVTQTLRSAALEDCALCQETLSSSELAAKTRDGDFEDPPEWVPDEACGFCTACKAPFTVIRRKHHCRSCGKIFCSRCSSHSAPLPRYGQVKPVRVCTHCYMFHVTPFYSDKAGL |  | 9
